Laboratory results taken from patent publication US20200289416.

Target: T1, MMP-Ac2-26 PA (C16V2A2E2-GGGPQGIWGQGK-AMVSEFLKQAWFIENEEQEYVQTVK-NH2)
T1 chain: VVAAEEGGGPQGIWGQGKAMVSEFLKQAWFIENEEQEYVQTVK

B1: human recombinant MMP2 (protein)
chain: YNFFPRKPKWDKNQITYRIIGYTPDLDPETVDDAFARAFQVWSDVTPLRFSRIHDGEADIMINFGRWEHGDGYPFDGKDGLLAHAFAPGTGVGGDSHFDDDELWTLGEGQVVRVKYGNADGEYCKFPFLFNGKEYNSCTDTGRSDGFLWCSTTYNFEKDGKYGFCPHEALFTMGGNAEGQPCKFPFRFQGTSYDSCTTEGRTDGYRWCGTTEDYDRDKKYGFCPETAMSTVGGNSEGAPCVFPFTFLGNKYESCTSAGRSDGKMWCATTANYDDDRKWGFCPDQGYSLFLVAAHEFGHAMGLEHSQDPGALMAPIYTYTKNFRLSQDDIKGIQELYGASPDIDLGTGPTPTLGPVTPEICKQDIVFDGIAQIRGEIFFFKDRFIWRTVTPRDKPMGPLLVATFWPELPEKIDAVYEAPQEEKAVFFAGNEYWIYSASTLERGYPKPLTSLGLPPDVQRVDAAFNWSKNKKTYIFAGDKFWRYNEVKKKMDPGFPKLIADAWNAIPDNLDAVVDLQGGGHSYFFKGAYYLKLENQSLKSVKFGSIKSDWLGC
- Ac2-26 release from PA nanofibers (cleavage assay, LC-MS): The MMP-Ac2-26 PA nanofibers released Ac2-26 after 24 hours of treatment with 40 nM MMP2
